We go through 25 molecules from patent publication US20200199241A1 (Chugai, published 2020).

B1: IL6R-2B253/IL6R-L (antibody, human IgG1)
heavy: QVQLQESGPGLVKPSETLSLTCAVSGHSISHDHAWSWVRQPPGEGLEWIGFISYSGITNYNPSLQGRVTISRDNSKNTLYLQMNSLRAEDTAVYYCARSLARTTAMDYWGEGTLVTVSSASTKGPSVFPLAPSSKSTSGGTAALGCLVKDYFPEPVTVSWNSGALTSGVHTFPAVLQSSGLYSLSSVVTVPSSSLGTQTYICNVNHKPSNTKVDKKVEPKSCDKTHTCPPCPAPDLLGGDSVFLFPPKPKDTLMISRTPEVTCVVVDVSHEDPEVKFNWYVDGVEVHNAKTKPREEQYNSTYRVVSVLTVLHQDWLNGKEYKCKMSNKALPAPIEKTISKAKGQPREPQVYTLPPSRDELTKNQVSLTCLVKGFYPSDIAVEWESNGQPENNYKTTPPVLDSDGSFFLYSKLTVDKSRWQQGNVFSCSVMHEALHNHYTQESLSLSP
light: DIQMTQSPSSLSASVGDRVTITCRASQDISSYLNWYQQKPGKAPKLLIYYTSRLHSGVPSRFSGSGSGTDFTFTISSLQPEDIATYYCQQGNTLPYTFGQGTKVEIK
notes: IgG1; Fc variant of IL6R-B3; copies: 2 + 2
B2: IL6R-BP191/IL6R-L (antibody, human IgG1)
heavy: B1 heavy with H270D, P273G, M325V, K328A, A332K
light: B1 light
notes: as for B1
B3: IL6R-2B261/IL6R-L (antibody, human IgG1)
heavy: B1 heavy with Y298D, M325V
light: B1 light
notes: as for B1
B4: IL6R-BP190/IL6R-L (antibody, human IgG1)
heavy: B1 heavy with D235E, G239D, H270D, P273G, M325V, A332K
light: B1 light
notes: as for B1
B5: IL6R-BP195/IL6R-L (antibody, human IgG1)
heavy: B1 heavy with L236Y, G239D, H270D, P273G, Y298D, M325V, K328A, A332K
light: B1 light
notes: as for B1
B6: IL6R-BP083/IL6R-L (antibody, human IgG1)
heavy: B1 heavy with D235E, Y298D, M325V, A332K
light: B1 light
notes: as for B1
B7: IL6R-BP211/IL6R-L (antibody, human IgG1)
heavy: B1 heavy with H270D, P273G, M325V, K328A, A332R
light: B1 light
notes: as for B1
B8: IL6R-BP082/IL6R-L (antibody, human IgG1)
heavy: B1 heavy with M325V, A332K
light: B1 light
notes: as for B1
B9: IL6R-BP085/IL6R-L (antibody, human IgG1)
heavy: B1 heavy with D235E, G239D, M325V, A332K
light: B1 light
notes: as for B1
B10: IL6R-BP151/IL6R-L (antibody, human IgG1)
heavy: B1 heavy with L236Y, G239D, M325V, K328A, A332R
light: B1 light
notes: as for B1
B11: IL6R-BP181/IL6R-L (antibody, human IgG1)
heavy: B1 heavy with P273G, M325V, K328A, A332K
light: B1 light
notes: as for B1
B12: IL6R-BP131/IL6R-L (antibody, human IgG1)
heavy: B1 heavy with G239D, M325V, A332K
light: B1 light
notes: as for B1
B13: IL6R-BP084/IL6R-L (antibody, human IgG1)
heavy: B1 heavy with D235E, A332K
light: B1 light
notes: as for B1
B14: IL6R-BP146/IL6R-L (antibody, human IgG1)
heavy: B1 heavy with D235E, L236Y, G239D, M325V, K328A
light: B1 light
notes: as for B1
B15: IL6R-BP201/IL6R-L (antibody, human IgG1)
heavy: B1 heavy with G239D, P273G, M325V, A332R
light: B1 light
notes: as for B1
B16: IL6R-BP212/IL6R-L (antibody, human IgG1)
heavy: B1 heavy with H270D, P273G, Y298D, M325V, A332R
light: B1 light
notes: as for B1
B17: IL6R-BP176/IL6R-L (antibody, human IgG1)
heavy: B1 heavy with M325V, K328D, A332K
light: B1 light
notes: as for B1
B18: IL6R-BP152/IL6R-L (antibody, human IgG1)
heavy: B1 heavy with L236Y, G239D, Y298D, M325V, K328A, A332R
light: B1 light
notes: as for B1
B19: IL6R-BP205/IL6R-L (antibody, human IgG1)
heavy: B1 heavy with P273G, Y298D, M325V, A332R
light: B1 light
notes: as for B1
B20: IL6R-BP202/IL6R-L (antibody, human IgG1)
heavy: B1 heavy with D235E, G239D, P273G, M325V, K328A, A332R
light: B1 light
notes: as for B1
B21: IL6R-BP204/IL6R-L (antibody, human IgG1)
heavy: B1 heavy with P273G, M325V, K328A, A332R
light: B1 light
notes: as for B1
B22: IL6R-BP210/IL6R-L (antibody, human IgG1)
heavy: B1 heavy with D235E, G239D, H270D, P273G, M325V, A332R
light: B1 light
notes: as for B1
B23: IL6R-BP193/IL6R-L (antibody, human IgG1)
heavy: B1 heavy with H270D, P273G, M325V, A332K
light: B1 light
notes: as for B1
B24: IL6R-BP178/IL6R-L (antibody, human IgG1)
heavy: B1 heavy with G239D, P273G, M325V, A332K
light: B1 light
notes: as for B1
B25: IL6R-BP188/IL6R-L (antibody, human IgG1)
heavy: B1 heavy with G239D, H270D, P273G, M325V, A332K
light: B1 light
notes: as for B1

Positions count from the first letter of the chain named.

T1 sequence (P08637 other isoform, or with tags, fused parts or gaps limits assumed): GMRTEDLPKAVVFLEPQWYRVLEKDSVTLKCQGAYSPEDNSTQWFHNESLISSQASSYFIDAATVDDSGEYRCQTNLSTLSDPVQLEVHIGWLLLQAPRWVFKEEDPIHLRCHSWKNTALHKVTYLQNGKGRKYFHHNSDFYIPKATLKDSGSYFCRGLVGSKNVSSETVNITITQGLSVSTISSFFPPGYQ
T3 sequence (P12314 16-292 limits assumed): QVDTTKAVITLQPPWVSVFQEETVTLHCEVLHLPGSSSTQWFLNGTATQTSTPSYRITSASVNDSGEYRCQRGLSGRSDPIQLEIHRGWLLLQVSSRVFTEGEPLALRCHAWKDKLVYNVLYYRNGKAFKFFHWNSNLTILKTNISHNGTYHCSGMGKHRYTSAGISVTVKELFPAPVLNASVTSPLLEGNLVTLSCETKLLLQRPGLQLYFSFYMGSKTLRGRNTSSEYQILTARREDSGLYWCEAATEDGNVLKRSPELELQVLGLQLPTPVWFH

One experiment addresses T1, FcγRIIIa type V (human, UniProt P08637 17-208, limits assumed).
T1 construct: also called FcγRIIIaV; FcgRIIIaV
In words: SPR (Biacore), bound amount, IL6R-BF648/IL6R-L = 100. For orientation: Surface plasmon resonance follows binding to a sensor surface in real time, without labels.
Procedure: (§1) According to the following method, relative binding activities were calculated for the results of analyzing interactions with the respective FcγRs.
For B1, the relative binding activity was 126 % of control.
On the same count and under the same terms, next, B2: 142 % of control; B3: 87 % of control.
For the molecule B4, the relative binding activity is 155 % of control.
Regarding B5, the relative binding activity was 221 % of control.
Consider B6, for which the relative binding activity is 107 % of control.
Same read-out and setting: then B7, with 87 % of control; and B8, with 67 % of control; and B9, with 104 % of control.
Consider B10, for which the relative binding activity is 221 % of control.
On to B11, for which the relative binding activity is 122 % of control.
Regarding B12, the relative binding activity is 118 % of control.
As to B13, the relative binding activity is 106 % of control.

The target of another experiment is T2, FcγRIIa type H (human, UniProt P12318 36-217).
T2 construct: also called FcγRIIaH; FcγRIIH
T2 sequence: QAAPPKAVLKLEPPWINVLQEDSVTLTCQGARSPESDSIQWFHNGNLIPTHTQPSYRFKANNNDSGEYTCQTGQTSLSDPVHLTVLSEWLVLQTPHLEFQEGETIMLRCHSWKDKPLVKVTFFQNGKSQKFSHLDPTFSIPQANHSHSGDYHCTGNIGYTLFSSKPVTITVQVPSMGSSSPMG
The description is as above.
Procedure: as §1
Consider B1, for which the relative binding activity was 207 % of control.
B14: the relative binding activity was 203 % of control.
For B15, the relative binding activity was 359 % of control.
Regarding B2, the relative binding activity is 145 % of control.
Take B3: the relative binding activity was 91 % of control.
For B4, the relative binding activity was 224 % of control.
With B5, the relative binding activity was 344 % of control.
Regarding B16, the relative binding activity is 135 % of control.
In the case of B17, the relative binding activity was 128 % of control.
In the case of B18, the relative binding activity was 548 % of control.
For the molecule B6, the relative binding activity is 91 % of control.
For the molecule B19, the relative binding activity was 108 % of control.
With B20, the relative binding activity was 285 % of control.
As to B21, the relative binding activity was 137 % of control.
As for B22, the relative binding activity is 279 % of control.
As to B8, the relative binding activity was 106 % of control.
B9: the relative binding activity is 158 % of control.
Take B10: the relative binding activity is 621 % of control.
As to B11, the relative binding activity was 150 % of control.
In the case of B12, the relative binding activity was 253 % of control.
As to B13, the relative binding activity is 162 % of control.
As to B23, the relative binding activity is 154 % of control.
For the molecule B24, the relative binding activity was 259 % of control.

Another experiment has as its target T3, FcγRIa (human, UniProt P12314 16-292, limits assumed).
T3 construct: also called FcgRIa; CD64
The experiment is described as above.
Procedure: as §1
For B1, the relative binding activity was 155 % of control.
As to B15, the relative binding activity is 57 % of control.
Same read-out and setting: next, B2: 125 % of control; B3: 100 % of control; B4: 50 % of control.
Still for that read-out and setting: then B5, with 66 % of control; and B16, with 117 % of control; and B25, with 74 % of control.
As to B17, the relative binding activity was 102 % of control.
The same measure, in the same setting: next, B18: 34 % of control; B6: 50 % of control; B19: 97 % of control.
As to B7, the relative binding activity was 128 % of control.
For the molecule B20, the relative binding activity is 43 % of control.
For the molecule B22, the relative binding activity is 57 % of control.
As for B8, the relative binding activity is 74 % of control.
With B9, the relative binding activity is 19 % of control.
With B10, the relative binding activity is 39 % of control.
Take B12: the relative binding activity was 33 % of control.
As for B13, the relative binding activity was 109 % of control.
For B23, the relative binding activity is 113 % of control.
For the molecule B24, the relative binding activity was 51 % of control.

A further experiment addresses T4, FcγRIIb (human, UniProt P31994 43-217, limits assumed).
T4 construct: also called FcgRIIb; FcγIIB
T4 sequence: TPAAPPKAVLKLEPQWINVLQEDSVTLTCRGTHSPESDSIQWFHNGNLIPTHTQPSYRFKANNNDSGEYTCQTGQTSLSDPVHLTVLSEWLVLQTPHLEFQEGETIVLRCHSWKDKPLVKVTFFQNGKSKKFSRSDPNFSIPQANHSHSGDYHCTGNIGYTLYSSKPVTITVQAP
The experiment is described as above.
Procedure: as §1
For the molecule B1, the relative binding activity was 156 % of control.
Still for that read-out and setting: next, B14: 156 % of control.
On to B15, for which the relative binding activity was 186 % of control.
As to B3, the relative binding activity was 115 % of control.
As to B16, the relative binding activity is 173 % of control.
For B25, the relative binding activity was 179 % of control.
On to B17, for which the relative binding activity is 147 % of control.
For B18, the relative binding activity is 178 % of control.
Regarding B6, the relative binding activity was 122 % of control.
B19: the relative binding activity is 167 % of control.
Take B7: the relative binding activity was 165 % of control.
B20: the relative binding activity was 185 % of control.
On to B21, for which the relative binding activity is 165 % of control.
Take B22: the relative binding activity is 187 % of control.
Still for that read-out and setting: then B8, with 136 % of control.
As to B9, the relative binding activity is 152 % of control.
Regarding B13, the relative binding activity is 141 % of control.
Turning to B23, the relative binding activity is 173 % of control.
As to B24, the relative binding activity is 179 % of control.
